Results: IntAct's records for PubMed 19345194

B1: Homer protein homolog 1 (Rattus norvegicus (Rat)), Q9Z214-2 (parent)
chain: MGEQPIFSTRAHVFQIDPNTKKNWVPTSKHAVTVSYFYDSTRNVYRIISLDGSKAIINSTITPNMTFTKTSQKFGQWADSRANTVYGLGFSSEHHLSKFAEKFQEFKEAARLAKEKSQEKMELTSTPSQESAGGDLQSPLTPESINGTDDERTPDVTQNSEPRAEPAQNALPFSHSSAISKHWEAELATLKGNNAKLTAALLESTANVKQWKQQLAAYQEEAERLHKRVTELECVSSQANAVHSHKTELSQTVQELEETLKVKEEEIERLKQEIDNARELQEQRDSLTQKLQEVEIRNKDLEGQLSELEQRLEKSQSEQDAFRSNLKTLLEILDGKIFELTELRDNLAKLLECS

Variants of: B1
Details: with shan1_rat Shank1, Q9WV48
Sequence of shan1_rat Shank1, Q9WV48 (Q9WV48 whole entry): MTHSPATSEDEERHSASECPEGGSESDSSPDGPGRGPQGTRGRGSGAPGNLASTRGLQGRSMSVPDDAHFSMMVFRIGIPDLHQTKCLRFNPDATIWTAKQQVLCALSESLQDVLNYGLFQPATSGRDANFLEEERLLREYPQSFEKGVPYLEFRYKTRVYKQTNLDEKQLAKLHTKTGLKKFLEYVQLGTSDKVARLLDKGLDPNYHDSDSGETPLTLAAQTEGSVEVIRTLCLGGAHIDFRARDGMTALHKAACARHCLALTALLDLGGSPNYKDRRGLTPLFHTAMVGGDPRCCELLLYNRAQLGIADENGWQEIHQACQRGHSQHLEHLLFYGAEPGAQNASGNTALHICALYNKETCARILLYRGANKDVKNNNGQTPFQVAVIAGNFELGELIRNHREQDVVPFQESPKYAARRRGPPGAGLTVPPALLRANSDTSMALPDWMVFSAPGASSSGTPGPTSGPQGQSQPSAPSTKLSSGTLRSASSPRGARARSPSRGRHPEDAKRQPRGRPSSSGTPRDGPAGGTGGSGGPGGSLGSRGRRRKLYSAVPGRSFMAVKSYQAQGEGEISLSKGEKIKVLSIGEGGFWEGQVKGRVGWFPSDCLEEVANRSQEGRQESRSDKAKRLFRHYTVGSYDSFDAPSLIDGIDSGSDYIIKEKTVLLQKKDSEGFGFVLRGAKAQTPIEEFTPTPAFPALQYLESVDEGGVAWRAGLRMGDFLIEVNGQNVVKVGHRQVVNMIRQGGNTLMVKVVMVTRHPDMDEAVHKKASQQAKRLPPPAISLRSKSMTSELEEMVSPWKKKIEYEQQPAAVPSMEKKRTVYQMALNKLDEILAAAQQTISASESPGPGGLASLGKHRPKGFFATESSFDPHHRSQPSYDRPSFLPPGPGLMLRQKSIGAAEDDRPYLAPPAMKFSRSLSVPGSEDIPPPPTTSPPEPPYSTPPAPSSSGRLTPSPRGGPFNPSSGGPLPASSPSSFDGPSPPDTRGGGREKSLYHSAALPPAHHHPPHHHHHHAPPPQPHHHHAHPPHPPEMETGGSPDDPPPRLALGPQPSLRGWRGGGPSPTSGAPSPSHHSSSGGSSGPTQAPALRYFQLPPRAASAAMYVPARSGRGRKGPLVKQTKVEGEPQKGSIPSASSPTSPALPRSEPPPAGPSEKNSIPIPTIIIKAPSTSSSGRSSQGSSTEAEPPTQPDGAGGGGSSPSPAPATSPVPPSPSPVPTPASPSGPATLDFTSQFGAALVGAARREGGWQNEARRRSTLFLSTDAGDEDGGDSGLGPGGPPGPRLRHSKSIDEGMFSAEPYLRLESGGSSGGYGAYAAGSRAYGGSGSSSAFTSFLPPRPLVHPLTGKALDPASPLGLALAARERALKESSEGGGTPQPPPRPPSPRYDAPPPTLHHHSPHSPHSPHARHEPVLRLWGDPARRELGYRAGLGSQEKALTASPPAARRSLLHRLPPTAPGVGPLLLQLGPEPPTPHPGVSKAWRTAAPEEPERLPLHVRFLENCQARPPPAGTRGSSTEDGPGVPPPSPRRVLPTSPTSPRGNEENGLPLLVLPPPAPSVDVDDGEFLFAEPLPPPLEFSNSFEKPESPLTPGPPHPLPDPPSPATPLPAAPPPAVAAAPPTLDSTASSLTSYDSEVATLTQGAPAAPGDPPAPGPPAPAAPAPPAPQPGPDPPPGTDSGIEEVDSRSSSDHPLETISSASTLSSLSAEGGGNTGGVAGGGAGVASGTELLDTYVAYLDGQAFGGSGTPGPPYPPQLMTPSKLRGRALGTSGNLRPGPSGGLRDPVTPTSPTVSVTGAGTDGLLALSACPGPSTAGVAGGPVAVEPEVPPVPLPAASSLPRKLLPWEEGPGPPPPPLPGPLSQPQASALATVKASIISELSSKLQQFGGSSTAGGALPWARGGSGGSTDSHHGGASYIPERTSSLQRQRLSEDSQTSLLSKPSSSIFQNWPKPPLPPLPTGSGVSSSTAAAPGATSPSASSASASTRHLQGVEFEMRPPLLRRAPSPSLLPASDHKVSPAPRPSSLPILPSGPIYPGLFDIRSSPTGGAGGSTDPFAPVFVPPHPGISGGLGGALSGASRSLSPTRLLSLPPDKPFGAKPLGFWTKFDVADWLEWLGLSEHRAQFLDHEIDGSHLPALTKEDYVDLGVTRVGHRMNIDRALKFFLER

effect of a mutation on the interaction | Variant
decreasing interaction | W24A
